Source: patent US20230212549A1, “COMPOUNDS COMPRISING A […] LIGAND AND USE THEREOF” (priority 2021, published 2023)
One block for each binder: values may come before it. Bridge positions count the residues as written; N and C are the ends.

How the values were obtained:
Assay in all cases: radioligand displacement (agonist radioligand), 10 µM
[1] = target: T1, D2S (h) (human), P14416
T1 chain: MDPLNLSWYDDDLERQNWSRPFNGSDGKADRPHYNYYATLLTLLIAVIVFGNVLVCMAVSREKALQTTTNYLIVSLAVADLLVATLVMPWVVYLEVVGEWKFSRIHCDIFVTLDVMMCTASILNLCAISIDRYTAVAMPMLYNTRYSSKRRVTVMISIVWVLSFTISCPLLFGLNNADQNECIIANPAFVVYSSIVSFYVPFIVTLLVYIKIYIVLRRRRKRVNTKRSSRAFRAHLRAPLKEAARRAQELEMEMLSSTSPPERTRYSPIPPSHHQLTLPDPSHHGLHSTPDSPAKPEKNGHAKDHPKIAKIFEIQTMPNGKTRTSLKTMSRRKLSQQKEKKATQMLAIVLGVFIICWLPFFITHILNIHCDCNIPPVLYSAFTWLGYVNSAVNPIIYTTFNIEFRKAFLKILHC

[2] = target: 5-HT2B (h) (human), P41595; settings: remark: other sources report otherwise
[3] = target: BZD (central)
[4] = target: beta 1 (h) (human), P08588; settings: remark: other sources report otherwise
[5] = target: T2, ETA (h) (human), P25101; settings: remark: other sources report otherwise
T2 chain: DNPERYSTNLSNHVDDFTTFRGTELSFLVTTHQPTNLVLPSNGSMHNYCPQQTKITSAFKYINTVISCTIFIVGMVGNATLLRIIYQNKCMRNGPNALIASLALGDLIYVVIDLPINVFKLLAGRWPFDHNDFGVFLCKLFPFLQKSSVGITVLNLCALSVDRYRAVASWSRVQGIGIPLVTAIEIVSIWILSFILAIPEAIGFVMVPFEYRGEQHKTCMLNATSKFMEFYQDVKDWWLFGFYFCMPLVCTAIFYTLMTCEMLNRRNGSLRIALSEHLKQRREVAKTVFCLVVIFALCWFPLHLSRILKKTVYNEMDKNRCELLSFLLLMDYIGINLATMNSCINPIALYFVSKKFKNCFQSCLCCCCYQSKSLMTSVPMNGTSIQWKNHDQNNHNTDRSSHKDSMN

[6] = target: T3, A2A (h) (human), P29274; settings: remark: other sources report otherwise
T3 chain: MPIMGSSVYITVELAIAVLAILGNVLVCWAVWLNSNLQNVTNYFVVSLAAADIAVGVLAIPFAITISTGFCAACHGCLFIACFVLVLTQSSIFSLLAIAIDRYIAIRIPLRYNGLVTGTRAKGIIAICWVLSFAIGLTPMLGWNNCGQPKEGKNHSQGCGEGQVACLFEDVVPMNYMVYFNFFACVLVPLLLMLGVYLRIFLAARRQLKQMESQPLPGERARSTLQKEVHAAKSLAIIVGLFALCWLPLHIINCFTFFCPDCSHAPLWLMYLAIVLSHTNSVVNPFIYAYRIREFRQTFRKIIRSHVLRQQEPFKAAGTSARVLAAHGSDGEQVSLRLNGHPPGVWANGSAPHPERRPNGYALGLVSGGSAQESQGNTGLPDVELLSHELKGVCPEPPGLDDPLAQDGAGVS

[7] = target: T4, AR (h) (human), P10275; settings: remark: other sources report otherwise
T4 chain: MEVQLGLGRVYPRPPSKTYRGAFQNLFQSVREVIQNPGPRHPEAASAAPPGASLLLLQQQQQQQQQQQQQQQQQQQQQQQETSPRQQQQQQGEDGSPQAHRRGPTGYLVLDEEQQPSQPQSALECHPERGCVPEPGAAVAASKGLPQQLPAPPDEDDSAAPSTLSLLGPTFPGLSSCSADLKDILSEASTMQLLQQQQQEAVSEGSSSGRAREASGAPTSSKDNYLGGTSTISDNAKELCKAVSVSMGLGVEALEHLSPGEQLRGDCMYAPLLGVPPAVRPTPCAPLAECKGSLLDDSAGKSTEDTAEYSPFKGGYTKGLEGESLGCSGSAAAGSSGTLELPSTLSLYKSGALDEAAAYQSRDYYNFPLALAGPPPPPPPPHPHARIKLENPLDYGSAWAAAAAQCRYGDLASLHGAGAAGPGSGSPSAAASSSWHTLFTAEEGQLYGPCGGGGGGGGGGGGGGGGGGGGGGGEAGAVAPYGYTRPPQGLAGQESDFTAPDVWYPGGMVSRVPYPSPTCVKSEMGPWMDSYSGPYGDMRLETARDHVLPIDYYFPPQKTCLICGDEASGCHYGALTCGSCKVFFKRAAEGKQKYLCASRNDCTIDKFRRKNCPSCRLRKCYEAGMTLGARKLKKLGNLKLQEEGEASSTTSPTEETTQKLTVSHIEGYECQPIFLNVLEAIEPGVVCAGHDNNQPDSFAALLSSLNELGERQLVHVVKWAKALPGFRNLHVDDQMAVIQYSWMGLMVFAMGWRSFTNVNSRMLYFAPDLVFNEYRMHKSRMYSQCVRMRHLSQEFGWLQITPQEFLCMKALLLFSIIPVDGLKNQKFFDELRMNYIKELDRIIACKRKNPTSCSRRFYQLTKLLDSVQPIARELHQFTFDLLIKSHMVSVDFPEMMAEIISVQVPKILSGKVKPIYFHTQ

[8] = target: T5, 5-HT1A (h) (human), P08908; settings: remark: other sources report otherwise
T5 chain: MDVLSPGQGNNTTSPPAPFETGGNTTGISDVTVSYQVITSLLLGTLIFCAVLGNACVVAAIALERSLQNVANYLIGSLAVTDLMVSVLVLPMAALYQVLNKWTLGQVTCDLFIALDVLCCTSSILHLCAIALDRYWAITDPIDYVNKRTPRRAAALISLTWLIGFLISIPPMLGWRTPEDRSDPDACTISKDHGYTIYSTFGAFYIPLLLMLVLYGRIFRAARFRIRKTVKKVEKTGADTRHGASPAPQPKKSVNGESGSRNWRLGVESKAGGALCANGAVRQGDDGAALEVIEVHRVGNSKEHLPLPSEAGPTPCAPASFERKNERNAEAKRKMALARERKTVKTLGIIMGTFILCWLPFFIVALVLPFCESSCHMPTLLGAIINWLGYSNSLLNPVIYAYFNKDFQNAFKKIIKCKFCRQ

[9] = target: 5-HT2A (h) (human), P28223; settings: remark: other sources report otherwise
5-HT2A (h) (human), P28223, sequence (P28223 whole entry): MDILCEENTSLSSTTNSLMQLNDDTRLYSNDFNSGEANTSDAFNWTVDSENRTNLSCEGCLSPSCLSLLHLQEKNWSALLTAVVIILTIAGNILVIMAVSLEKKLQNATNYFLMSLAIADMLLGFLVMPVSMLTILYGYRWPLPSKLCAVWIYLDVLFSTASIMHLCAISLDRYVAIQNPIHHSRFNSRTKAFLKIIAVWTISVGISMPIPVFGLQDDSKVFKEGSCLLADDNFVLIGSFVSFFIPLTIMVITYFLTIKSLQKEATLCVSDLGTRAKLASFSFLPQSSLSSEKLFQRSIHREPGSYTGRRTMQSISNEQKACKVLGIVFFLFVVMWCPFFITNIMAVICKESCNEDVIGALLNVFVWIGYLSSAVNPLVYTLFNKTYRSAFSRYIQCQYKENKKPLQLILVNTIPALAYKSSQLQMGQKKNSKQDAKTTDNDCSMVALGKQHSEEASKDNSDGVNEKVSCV

5-HT2B (h) (human), P41595, sequence (P41595 whole entry): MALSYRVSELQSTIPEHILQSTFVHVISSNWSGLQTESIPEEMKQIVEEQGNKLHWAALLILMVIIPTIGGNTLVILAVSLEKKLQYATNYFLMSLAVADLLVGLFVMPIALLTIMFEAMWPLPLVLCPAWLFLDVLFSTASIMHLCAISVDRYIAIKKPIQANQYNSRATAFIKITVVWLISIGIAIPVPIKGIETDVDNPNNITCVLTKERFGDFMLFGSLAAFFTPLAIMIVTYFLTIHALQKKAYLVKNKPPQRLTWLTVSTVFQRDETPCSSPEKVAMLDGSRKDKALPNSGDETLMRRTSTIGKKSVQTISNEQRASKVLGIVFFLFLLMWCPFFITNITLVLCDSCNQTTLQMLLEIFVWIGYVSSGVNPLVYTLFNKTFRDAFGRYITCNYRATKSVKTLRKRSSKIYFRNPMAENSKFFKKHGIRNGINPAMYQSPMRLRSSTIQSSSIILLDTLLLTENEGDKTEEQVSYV
beta 1 (h) (human), P08588, sequence (P08588 whole entry): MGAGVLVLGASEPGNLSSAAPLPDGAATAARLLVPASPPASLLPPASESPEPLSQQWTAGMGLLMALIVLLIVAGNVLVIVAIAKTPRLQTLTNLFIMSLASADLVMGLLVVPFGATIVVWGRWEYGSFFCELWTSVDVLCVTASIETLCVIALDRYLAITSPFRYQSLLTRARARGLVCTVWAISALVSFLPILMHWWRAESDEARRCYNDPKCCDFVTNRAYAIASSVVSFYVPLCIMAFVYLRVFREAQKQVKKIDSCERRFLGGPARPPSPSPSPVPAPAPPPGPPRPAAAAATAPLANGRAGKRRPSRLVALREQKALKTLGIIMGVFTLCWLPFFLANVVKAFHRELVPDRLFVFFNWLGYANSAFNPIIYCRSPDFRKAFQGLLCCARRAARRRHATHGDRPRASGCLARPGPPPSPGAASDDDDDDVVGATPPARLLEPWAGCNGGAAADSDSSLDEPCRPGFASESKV

% Inhibition of Specific Binding [1]: -7%
% Inhibition of Specific Binding [2]: 3%
% Inhibition of Specific Binding [3]: 5%
% Inhibition of Specific Binding [4]: -13%
% Inhibition of Specific Binding [5]: 6%
% Inhibition of Specific Binding [6]: -16%
% Inhibition of Specific Binding [7]: -5%
% Inhibition of Specific Binding [8]: -5%
% Inhibition of Specific Binding [9]: 4%
B1: Hex-[Cys(tMeBn(DOTA-AET))-Pro-Pro-Thr-Gln-Phe-Cys]-OH (peptide)
peptide: Hex-CPPTQFC-OH
modifications: bridge 1-7; not fully specified (bridges); printed as Hex-[Cys(tMeBn(DOTA-AET))-Pro-Pro-Thr-Gln-Phe-Cys]-OH

B2: Hex-[Cys(tMeBn(DOTA-PP))-Pro-Pro-Thr-Gln-Phe-Cys]-Asp-NH2 (peptide)
peptide: Hex-CPPTQFCD-NH2
modifications: bridge 1-7; not fully specified (bridges); printed as Hex-[Cys(tMeBn(DOTA-PP))-Pro-Pro-Thr-Gln-Phe-Cys]-Asp-NH2
% Inhibition of Specific Binding [1]: 15%
% Inhibition of Specific Binding [2]: 2%
% Inhibition of Specific Binding [3]: -9%
% Inhibition of Specific Binding [4]: 4%
% Inhibition of Specific Binding [5]: -18%
% Inhibition of Specific Binding [6]: -4%
% Inhibition of Specific Binding [7]: 3%
% Inhibition of Specific Binding [8]: -3%
% Inhibition of Specific Binding [9]: -2%
